T1: human PTPRS isoform 4 without signal sequence, FLAG-tagged, expressed from pFLAG-PTPRS-4 (human, UniProt Q13332 30-1948)
T1 construct: not shown: FLAG tag supplied by the vector pFLAG-GW
T1 sequence: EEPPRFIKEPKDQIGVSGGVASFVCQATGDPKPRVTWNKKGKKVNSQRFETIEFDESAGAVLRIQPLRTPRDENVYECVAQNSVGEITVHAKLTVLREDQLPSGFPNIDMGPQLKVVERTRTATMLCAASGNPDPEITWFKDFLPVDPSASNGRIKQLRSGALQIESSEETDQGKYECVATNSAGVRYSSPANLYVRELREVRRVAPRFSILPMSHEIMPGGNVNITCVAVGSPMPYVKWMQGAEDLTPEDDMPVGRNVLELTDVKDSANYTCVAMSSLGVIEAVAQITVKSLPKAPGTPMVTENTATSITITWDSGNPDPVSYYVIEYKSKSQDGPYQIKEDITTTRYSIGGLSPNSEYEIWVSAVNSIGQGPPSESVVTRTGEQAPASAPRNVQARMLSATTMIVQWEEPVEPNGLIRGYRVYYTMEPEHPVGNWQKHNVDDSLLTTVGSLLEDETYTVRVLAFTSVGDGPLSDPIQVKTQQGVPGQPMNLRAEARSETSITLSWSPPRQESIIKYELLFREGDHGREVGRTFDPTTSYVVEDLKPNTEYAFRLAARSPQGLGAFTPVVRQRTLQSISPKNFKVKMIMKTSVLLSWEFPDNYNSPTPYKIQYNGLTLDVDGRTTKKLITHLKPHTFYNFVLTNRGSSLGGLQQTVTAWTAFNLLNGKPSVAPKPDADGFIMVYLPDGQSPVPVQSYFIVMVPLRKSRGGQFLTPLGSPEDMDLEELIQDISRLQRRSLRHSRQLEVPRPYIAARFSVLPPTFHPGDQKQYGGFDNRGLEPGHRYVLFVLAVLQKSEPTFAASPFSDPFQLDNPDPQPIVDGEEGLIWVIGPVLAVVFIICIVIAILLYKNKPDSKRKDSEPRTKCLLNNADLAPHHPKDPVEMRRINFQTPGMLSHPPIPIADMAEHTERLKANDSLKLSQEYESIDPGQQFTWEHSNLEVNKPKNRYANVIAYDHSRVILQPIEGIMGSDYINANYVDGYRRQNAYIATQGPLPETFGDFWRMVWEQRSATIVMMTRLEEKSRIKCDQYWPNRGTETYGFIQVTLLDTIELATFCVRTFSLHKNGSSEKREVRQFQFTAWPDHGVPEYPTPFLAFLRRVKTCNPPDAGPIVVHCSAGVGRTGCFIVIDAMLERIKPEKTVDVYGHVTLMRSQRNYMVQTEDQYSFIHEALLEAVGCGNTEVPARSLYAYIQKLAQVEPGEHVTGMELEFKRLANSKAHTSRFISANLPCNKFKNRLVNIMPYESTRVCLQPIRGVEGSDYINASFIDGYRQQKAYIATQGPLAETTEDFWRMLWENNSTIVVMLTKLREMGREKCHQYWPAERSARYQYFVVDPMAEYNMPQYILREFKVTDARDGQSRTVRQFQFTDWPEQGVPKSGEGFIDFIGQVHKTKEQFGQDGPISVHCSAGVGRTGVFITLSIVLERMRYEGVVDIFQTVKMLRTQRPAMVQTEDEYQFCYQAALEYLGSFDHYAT

T2: human EPHA3 without signal sequence, FLAG-tagged, expressed from pFLAG-EPHA3 (human, UniProt P29320 21-983)
T2 construct: not shown: FLAG tag supplied by the vector pFLAG-GW
T2 sequence: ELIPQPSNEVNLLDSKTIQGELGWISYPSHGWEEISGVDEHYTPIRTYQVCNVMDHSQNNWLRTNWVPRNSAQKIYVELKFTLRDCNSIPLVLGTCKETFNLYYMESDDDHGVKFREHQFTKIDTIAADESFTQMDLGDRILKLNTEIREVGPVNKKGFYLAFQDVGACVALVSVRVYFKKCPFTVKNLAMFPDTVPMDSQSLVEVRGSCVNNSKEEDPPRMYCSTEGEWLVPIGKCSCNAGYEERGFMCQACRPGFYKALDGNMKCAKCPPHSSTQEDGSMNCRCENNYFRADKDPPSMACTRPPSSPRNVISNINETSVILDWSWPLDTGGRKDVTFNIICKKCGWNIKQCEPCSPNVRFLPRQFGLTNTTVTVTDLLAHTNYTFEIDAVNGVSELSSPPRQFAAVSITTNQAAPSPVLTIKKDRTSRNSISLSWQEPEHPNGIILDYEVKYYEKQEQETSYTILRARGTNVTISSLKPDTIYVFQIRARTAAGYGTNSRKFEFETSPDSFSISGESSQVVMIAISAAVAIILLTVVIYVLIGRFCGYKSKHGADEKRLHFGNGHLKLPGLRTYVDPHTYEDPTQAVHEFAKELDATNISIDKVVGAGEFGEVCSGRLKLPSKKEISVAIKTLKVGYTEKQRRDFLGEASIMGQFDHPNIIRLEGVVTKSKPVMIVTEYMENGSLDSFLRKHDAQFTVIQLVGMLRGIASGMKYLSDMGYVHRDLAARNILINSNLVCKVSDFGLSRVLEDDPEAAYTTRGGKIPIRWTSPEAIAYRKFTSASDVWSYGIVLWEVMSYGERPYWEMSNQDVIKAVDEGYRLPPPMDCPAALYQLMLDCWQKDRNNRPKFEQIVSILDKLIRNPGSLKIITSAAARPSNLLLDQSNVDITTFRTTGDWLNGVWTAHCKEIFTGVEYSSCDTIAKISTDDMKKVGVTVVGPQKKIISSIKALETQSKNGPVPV

B1: mouse anti-human EPHA2 antibody A205 (antibody, V domains shown)
VH: QIQLVQSGPELKKPGETVKISCKASGYTFTDYSMNWVKQAPGKGLKWMGWINTYTGEPTYADDFKGRFAFSLETSASTAYLQINNLKNEDTATYFCASPISLLRLLDYWGQGTTLTVSS
VL: DVVMTQTPLSLPVSLGDQASIPCRSSQSLVHSNGNTYLHWYLQKPGQSPKLLIYKVSNRFSGVPDRFSGSGSGTDFTLKISRVEAEDLGVYFCSQSTHVPWTFGGGTKLEIKR
notes: Mouse monoclonal antibody purified from hybridoma supernatant, isotype IgG2b; also called A205 antibody
B2: mouse anti-human EPHA2 antibody A201 (antibody, V domains shown)
VH: EVQLQQSGAELVKPGASVKLSCTVSGFTFKDTYVHWVKQRPEQGLEWIGRIDPANANTKYDPKFQGKASITADTSSNTAYLQLSSLPSEDTAVYYCAAYGKSAWFAYWGQGTLVTVSA
VL: DIQMTQTTSSLSASLGDRVTISCRASQDIGNYLNWYQQKPDGTVKVLIYYTSRLHSGVPSRFSGSGSGTDYSLTISNLEQEDIATYFCQQGHSLPPTFGGGTKLEIKR
notes: Mouse monoclonal antibody purified from hybridoma supernatant, isotype IgG1; also called A201 antibody

Experiments:
[1] = biological target: T3, human PTPRS isoform 2 without signal sequence, FLAG-tagged, expressed from pFLAG-PTPRS-2 (human, UniProt Q13332 30-1948); assay: flow cytometry on transfected 293F cells
T3 construct: not shown: FLAG tag supplied by the vector pFLAG-GW

[2] = biological target: T4, human EPHA5 without signal sequence, FLAG-tagged, expressed from pFLAG-EPHA5 (human, UniProt P54756 56-1037); assay: flow cytometry on transfected 293F cells
T4 construct: not shown: FLAG tag supplied by the vector pFLAG-GW
T4 sequence (P54756 56-1037): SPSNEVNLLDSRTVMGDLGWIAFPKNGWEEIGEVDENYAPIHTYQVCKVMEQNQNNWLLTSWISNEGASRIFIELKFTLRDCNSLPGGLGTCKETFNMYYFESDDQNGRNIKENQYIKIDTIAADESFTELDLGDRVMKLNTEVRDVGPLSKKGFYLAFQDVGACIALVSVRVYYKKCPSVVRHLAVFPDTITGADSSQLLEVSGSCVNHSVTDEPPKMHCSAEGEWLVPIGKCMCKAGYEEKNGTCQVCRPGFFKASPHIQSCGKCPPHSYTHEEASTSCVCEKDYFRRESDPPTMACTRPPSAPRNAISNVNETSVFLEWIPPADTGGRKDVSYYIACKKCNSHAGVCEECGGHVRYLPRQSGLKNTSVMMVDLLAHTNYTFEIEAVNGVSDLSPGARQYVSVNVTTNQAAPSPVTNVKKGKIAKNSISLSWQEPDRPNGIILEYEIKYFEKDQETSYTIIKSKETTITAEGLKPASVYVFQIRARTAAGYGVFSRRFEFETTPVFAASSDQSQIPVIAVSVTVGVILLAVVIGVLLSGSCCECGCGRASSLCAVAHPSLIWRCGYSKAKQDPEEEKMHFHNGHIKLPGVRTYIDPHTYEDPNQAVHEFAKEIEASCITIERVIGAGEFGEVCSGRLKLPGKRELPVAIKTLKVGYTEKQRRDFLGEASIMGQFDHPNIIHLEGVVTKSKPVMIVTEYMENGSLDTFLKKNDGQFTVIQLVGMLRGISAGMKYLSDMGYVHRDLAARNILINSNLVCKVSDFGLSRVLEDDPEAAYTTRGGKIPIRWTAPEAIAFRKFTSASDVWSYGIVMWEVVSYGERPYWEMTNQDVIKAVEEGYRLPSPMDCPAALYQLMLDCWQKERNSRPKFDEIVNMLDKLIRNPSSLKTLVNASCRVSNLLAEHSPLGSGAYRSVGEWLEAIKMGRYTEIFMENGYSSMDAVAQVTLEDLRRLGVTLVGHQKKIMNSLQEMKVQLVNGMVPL

[3] = biological target: T1, human PTPRS isoform 4 without signal …; assay: flow cytometry on transfected 293F cells
[4] = biological target: T2, human EPHA3 without signal sequence, …; assay: flow cytometry on transfected 293F cells
[5] = biological target: T5, endogenous human EPHA2 (on MDA-MB-231 cells or 293F cells) (human, UniProt P29317 24-976); assay: immunohistochemistry on formalin-fixed, paraffin-embedded MDA-MB-231 cells
T5 construct: Untagged protein made by the cell lines themselves; also called endogenous EPHA2; EPHA2 endogenously expressed MDA-MB-231 cells
T5 sequence (P29317 24-976): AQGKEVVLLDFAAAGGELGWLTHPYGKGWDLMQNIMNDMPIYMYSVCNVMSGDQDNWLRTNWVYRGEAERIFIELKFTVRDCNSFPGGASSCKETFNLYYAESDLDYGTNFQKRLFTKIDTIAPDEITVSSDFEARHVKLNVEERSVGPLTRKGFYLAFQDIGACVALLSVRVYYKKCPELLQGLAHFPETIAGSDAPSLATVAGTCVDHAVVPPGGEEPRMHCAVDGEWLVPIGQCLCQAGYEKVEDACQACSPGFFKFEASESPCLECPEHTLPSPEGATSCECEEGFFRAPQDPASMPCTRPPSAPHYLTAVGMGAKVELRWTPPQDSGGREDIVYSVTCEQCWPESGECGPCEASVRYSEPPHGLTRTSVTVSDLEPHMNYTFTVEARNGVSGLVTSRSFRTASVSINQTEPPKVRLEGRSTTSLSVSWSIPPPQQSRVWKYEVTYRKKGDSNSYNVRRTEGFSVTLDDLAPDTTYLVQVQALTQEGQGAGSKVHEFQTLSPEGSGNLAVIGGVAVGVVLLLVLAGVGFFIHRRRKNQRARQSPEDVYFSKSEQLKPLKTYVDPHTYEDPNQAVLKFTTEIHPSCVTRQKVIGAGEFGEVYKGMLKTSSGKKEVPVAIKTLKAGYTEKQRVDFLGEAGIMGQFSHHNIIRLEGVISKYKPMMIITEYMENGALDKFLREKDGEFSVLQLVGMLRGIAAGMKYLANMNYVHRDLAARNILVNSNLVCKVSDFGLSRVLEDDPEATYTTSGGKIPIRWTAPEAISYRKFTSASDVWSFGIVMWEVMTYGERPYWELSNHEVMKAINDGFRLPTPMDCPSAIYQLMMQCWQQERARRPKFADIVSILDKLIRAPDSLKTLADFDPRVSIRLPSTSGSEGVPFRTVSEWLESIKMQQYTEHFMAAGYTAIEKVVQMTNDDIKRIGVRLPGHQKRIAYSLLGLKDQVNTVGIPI

[6] = biological target: T6, human EPHA2 without signal sequence, FLAG-tagged, expressed from pFLAG-EPHA2 (human, UniProt P29317 24-976); assay: immunohistochemistry on formalin-fixed, paraffin-embedded 293F cells transiently expressing EPHA2; antibody at 2.5 μg/mL
T6 construct: formalin-fixed, paraffin-embedded; not shown: FLAG tag supplied by the vector pFLAG-GW (from pFLAG-myc-CMV19)
T6 sequence (P29317 24-976): as above

Row | Binder | binding result [1] | binding result [2] | binding result [3] | binding result [4] | binding result [5] | binding result [6]
1 | B1 | no binding | no binding | no binding | no binding | binds | binds
2 | B2 | no binding | no binding | no binding | no binding | binds | binds
